This data set concerns the molecule itself. Briefly: SDS-PAGE without DTT (non-reducing) and western blot; purified recombinant His-USP5 or His-USP5^C195A in PBS treated with H2O2 for 10 min; SDS-PAGE with or without DTT (Fig. 5g, Supplementary Fig. S5e); western blot of H2O2-treated protein (Fig. 5k).

B1: His-USP5 (purified recombinant) (enzyme, human, UniProt P45974 1-858, looked up)
chain: MAELSEEALLSVLPTIRVPKAGDRVHKDECAFSFDTPESEGGLYICMNTFLGFGKQYVERHFNKTGQRVYLHLRRTRRPKEEDPATGTGDPPRKKPTRLAIGVEGGFDLSEEKFELDEDVKIVILPDYLEIARDGLGGLPDIVRDRVTSAVEALLSADSASRKQEVQAWDGEVRQVSKHAFSLKQLDNPARIPPCGWKCSKCDMRENLWLNLTDGSILCGRRYFDGSGGNNHAVEHYRETGYPLAVKLGTITPDGADVYSYDEDDMVLDPSLAEHLSHFGIDMLKMQKTDKTMTELEIDMNQRIGEWELIQESGVPLKPLFGPGYTGIRNLGNSCYLNSVVQVLFSIPDFQRKYVDKLEKIFQNAPTDPTQDFSTQVAKLGHGLLSGEYSKPVPESGDGERVPEQKEVQDGIAPRMFKALIGKGHPEFSTNRQQDAQEFFLHLINMVERNCRSSENPNEVFRFLVEEKIKCLATEKVKYTQRVDYIMQLPVPMDAALNKEELLEYEEKKRQAEEEKMALPELVRAQVPFSSCLEAYGAPEQVDDFWSTALQAKSVAVKTTRFASFPDYLVIQIKKFTFGLDWVPKKLDVSIEMPEELDISQLRGTGLQPGEEELPDIAPPLVTPDEPKGSLGFYGNEDEDSFCSPHFSSPTSPMLDESVIIQLVEMGFPMDACRKAVYYTGNSGAEAAMNWVMSHMDDPDFANPLILPGSSGPGSTSAAADPPPEDCVTTIVSMGFSRDQALKALRATNNSLERAVDWIFSHIDDLDAEAAMDISEGRSAADSISESVPVGPKVRDGPGKYQLFAFISHMGTSTMCGHYVCHIKKEGRWVIYNDQKVCASEKPPKDLGYIYFYQRVAS
notes: USP5; Treated with H2O2 before the dimerisation assays; also called recombinant USP5; WT USP5; source: E. coli BL21(DE3), purified (HisTrap HP, Superdex 200 increase)
As a reminder, the stoichiometry N is a count of units in the complex or per binding partner. With B1, the “stoichiometry N” value is 2.
